From patent US20260043817A1 (UNIVERSITY OF TOKYO, published 2026) come the findings set out here.

The target of the experiment is T1, HA-tagged Fluc-DM (Fluc-HA-DM) (firefly, UniProt P08659 1-550 = luciferase).
T1 construct: Model misfolded (structurally abnormal) protein, co-expressed in HeLa cells; Derived from the Addgene plasmid FlucDM-HA-GFP11-N1; also called R188Q/R261Q double mutant of firefly luciferase; aggregated mutant luciferase; not shown: HA tag
The experiment is described as follows: co-immunoprecipitation with anti-FLAG M2 gel from HeLa lysates, immunoblot. For orientation: A western blot detects proteins with antibodies after separation by electrophoresis.

B1: FLAG-LONRF2-LonSBm (P5A) (enzyme)
chain: MSPEPVPPPPPPQCPGCDRAEPIAQRLEEGDEAFRAGDYEMAAELFRSMLAGLAQPDRGLCLRLGDALARAGRLPEALGAFRGAARLGALRPEELEELAGGLVRAVGLRDRPLSAENPGGEPEAPGEGGPAPEPRAPRDLLGCPRCRRLLHKPVTLPCGLTVCKRCVEPGPARPQVRRVNVVLSGLLEKCFPAECRLRRLAGQARSLQRQQQPEAALLRCDQALELAPDDNSLLLLRAELYLTMKNYEQALQDASAACQNEPLLIKGHQVKAQALSGLGRSKEVLKEFLYCLALNPECNSVKKEAQKVMCEVLFSATANVHENLTSSIQSRLKAQGHSHMNAQALLEEGDAGSSENSSEKSDMLGNTNSSVLYFILGLHFEEDKKALESILPTAPSAGLKRQFPDDVEDAPDLNAPGKIPKKDLSLQRSPNSETEESQGLSLDVTDFECALCMRLLFEPVTTPCGHTFCLKCLERCLDHAPHCPLCKDKLSELLASRNFNITVLAEELIFRYLPDELSDRKRIYDEEMSELSNLTRDVAIFVCAMAFATVPCALHVFEPRYRLMIRRCMETGTKRFGMCLSAEHAGLSEYGCMLEIKDVRTFADGSSVVDAIGISRFRVLSHRHRDGYNTADIEYLEDEKVEGPEYEELAALHDSVHQQSVSWFASLQDRMKEQILSHFGVMPDREPEPQSNPSGPAWSWWILAVLALERKAQLAILGMTSLKERLLAIRRILVIITRKMNSRQELANARERNN
notes: not shown: FLAG tag
As to B1, the binding result was “no binding”.
